Assay results as given in patent US20090191198A1 (EBERHARD KARLS UNIVERSITAT TUBINGEN, published 2009).

T1: soluble NKp80 ectodomain (NKp80-ED), biotinylated, used soluble or immobilized on streptavidin-coated … (human, UniProt Q9NZS2 64-231, biotinylated with BirA ligase at the BirA-tag ; Biotinylated by BirA ligase at the N-terminal BirA-tag (tag not in the letters). Used soluble or immobilized on streptavidin-coated microspheres. …)
T1 construct: Expressed in 293T cells from pSecTag2/HygroC; also called sNKp80-ED; imNKp80
T1 sequence: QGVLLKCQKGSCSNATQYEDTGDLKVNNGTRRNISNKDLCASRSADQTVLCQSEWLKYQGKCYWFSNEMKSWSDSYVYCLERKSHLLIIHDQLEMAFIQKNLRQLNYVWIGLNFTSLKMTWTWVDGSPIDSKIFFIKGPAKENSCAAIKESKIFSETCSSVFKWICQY

B1: NKp80-ED tetramers (biotinylated NKp80 ectodomain tetramerized with PE- or APC-labelled streptavidin) (receptor, not shown: large carriers; small tags and cut ends)
chain: QGVLLKCQKGSCSNATQYEDTGDLKVNNGTRRNISNKDLCASRSADQTVLCQSEWLKYQGKCYWFSNEMKSWSDSYVYCLERKSHLLIIHDQLEMAFIQKNLRQLNYVWIGLNFTSLKMTWTWVDGSPIDSKIFFIKGPAKENSCAAIKESKIFSETCSSVFKWICQY
modifications: biotinylated with BirA ligase at the BirA-tag ; Biotinylated by BirA ligase at the BirA-tag. Tetramerized on phycoerythrin- or allophycocyanin-labelled streptavidin (four copies per streptavidin, carrier not in the letters).
notes: Same polypeptide as m1, tetramerized on labelled streptavidin before use; also called sNKp80-ED tetramers

How the values were obtained:
[1] = target: B1; assay: flow cytometry, tetramers on U937 cells
[2] = target: T1, soluble NKp80 ectodomain (NKp80-ED), …; assay: flow cytometry, NKp80-ED tetramers on microsphere-immobilized NKp80-ED

Row | Binder | binding result [1] | binding result [2]
1 | AICL (Activation-induced C-type Lectin), natural, on myeloid cells (U937, THP-1, monocytes, macrophages, granulocytes) or in their lysates (ligand) MMTKHKKCFIIVGVLITTNIITLIVKLTRDSQSLCPYDWIGFQNKCYYFSKEEGDWNSSKYNCSTQHADLTIIDNIEETNFLRRYKCSSDHWIGLKMAKNRTGQWVDGATFTKSFGMRGSEGCAYLSDDGAATARCYTERKWICRKRIH | binds | –
2 | B1 | – | no binding
